This note sets out measurements from US20260258115A1 (MAPP BIOPHARMACEUTICAL, published 2026).

Where only a bound is given, the exact number is not on record here.

For test [1], the target named is RSV prefusion F (preF), DS-Cav1 (respiratory syncytial virus, UniProt P03420 26-513). Description: BLI, IgG on sensor, 100 nM antigen. Background: Biolayer interferometry detects binding as a change in optical thickness at a sensor tip.
Test [2] addresses RSV fusion glycoprotein (RSV F) on RSV-A2 virus (respiratory syncytial virus, UniProt P03420 26-574). Description: cell-based or functional assay.
The target in test [3] is RSV postfusion F (postF), F deltaFP (respiratory syncytial virus, UniProt P03420 26-513). The experiment in a line: BLI, IgG on sensor.
For test [4], the target named is RSV prefusion F, subtype A (preF, DS-Cav1 trimer) (Respiratory syncytial virus subtype A, UniProt P03420 26-513). Description: BLI, IgG apparent affinity.
In test [5] the target is RSV F on recombinant mKate-RSV B 18537 virus (Respiratory syncytial virus B 18537, UniProt P13843 26-574). The experiment in a line: cell-based or functional assay.
For test [6], the target named is RSV F on recombinant mKate-RSV A2 virus (Respiratory syncytial virus A2, UniProt P03420 26-574). Description: cell-based or functional assay.
The target of test [7] is RSV postfusion F (postF), F ΔFP (Respiratory syncytial virus, UniProt P03420 26-513). The experiment in a line: BLI, IgG on anti-human IgG sensor.
The target of a further test is RSV F on RSV-A2 virus (Respiratory syncytial virus, RSV-A2, UniProt P03420 26-574). Description: cell-based or functional assay.
Test [8] deals with RSV prefusion F (preF), DS-Cav1 (Respiratory syncytial virus, UniProt P03420 26-513). Description: BLI, IgG on anti-human IgG sensor, 100 nM antigen.

B1: ADI-41449 (antibody, V domains shown)
VH: EVQLVESGGGLVKPGGSLRLSCAASGFSFSSYRVNWVRQAPGKGLEWVSSITGGSSFIDYADSVKGRFTISRDNAKNSLFLQMNSLRAEDTAVYFCARDSMTTVTNSLAFDIWGQGTMVTVSS
VL: QSVLTQPPSVSGAPGQRVTISCTGSSSNIGVGYDVQWYQQLPGTAPKLLIYSNNKRPSGVPDRFSGSKSGTSASLAITGLQAEDEADYYCQSYDRSLSVVFGGGTKVTVL
notes: IgG1
For B1, in [1], the Kd was 0.508 nM. For the same molecule, in test [2], the “Neutralization IC50 (RSV subtype A)” value came to 0.16 µg/mL. Further, the binding result in [3] is on record as “no binding (tested: 100 nM antigen)”.

B2: ADI-21069 (antibody, V domains shown)
VH: EVQLVESGAEVRKPGASVKVSCKASGYTFSSNAISWVRQAPGQGLEWMGYISVFNGNTKYAQNLQGRVTMTTDTATSTVYMELRSLRYDDTAIYYCARESLGMGGFYFDHWGQGTLVTVSS
VL: SYELTQPPSVSVAPGQTARITCGANNIGSDSVHWYQQKPGQAPVLVVFDDRDRPSGIPERFSGSNSGNTATLTISRVEAGDEADYYCQVWMTSDRSVFGGGTKLTVL
With B2, the Kd in [4] was 0.123 nM. Besides, in [5], the “Neut IC50 (ug/ml) subtype B” value was found to be 0.26 µg/mL. In addition, the “Neut IC50 (ug/ml) subtype A” value in test [6] amounted to 0.11 µg/mL.

B3: ADI-21078 (antibody, V domains shown)
VH: EVQLVESGGGLVKPGGSLRLSCAASGFRLSDYYMSWIRQAPGKGLEWISDISGGSTYTNYADSVKGRLTISRDNAQNSLYLQMNSLRAEDTAVYYCARWGSGGPDAFHFWGQGTTVTVSS
VL: QSVLTQPPSVSGVPGQRVTISCTGSRSNIGAGYDVHWYRQLPGTAPKLLIYGNSNRPSGVPDRFSGSKSGTSASLAITGLQADDEADYYCQSYDSSLSGSVIFGGGTKVTVL
As to B3, the Kd in [4] was found to be 0.311 nM. In addition, the “Neut IC50 (ug/ml) subtype B” value in test [5] is 0.2 µg/mL. The “Neut IC50 (ug/ml) subtype A” value in [6] was 0.03 µg/mL.

B4: ADI-41447 (antibody, V domains shown)
VH: EVQLLESGGGLVQPGGSLRLSCAASGFTFSTYAMNWVRQAPGKGLEWVSTISGSGGSTYYGDSVKGRFTISRDNSKNTLYLQMNSLRAEDTAVYYCAKAPTPWCSGGSCYVSYWGQGTLVTVSS
VL: DIVMTQTPGTLSLSPGERGTLSCRASQSVSSSYLAWYQQKPGQAPRLLIYGASSRATGIPDRFGGSGSGTDFTLTISTLEPEDFAVYYCQQYQSSPWTFGQGTKLEIK
notes: IgG1
Turning to B4, the Kd in test [1] amounted to 54.1 nM. Moreover, the “Neutralization IC50 (RSV subtype A)” value in test [2] was > 25 µg/mL. The binding result in test [3] was “no binding (tested: 100 nM antigen)”.

B5: ADI-41756 (antibody, V domains shown)
VH: EVQLLESGGGVVQPGRSLRLSCAASGLSFNSFGMHWVRQAPGKGLEWVAVIAYDGSNKYYADSVKGRFSISRDNSKNTLYLQMDSLRAEDTAVYYCAKAEAPNFSWSGYLSAFDIWGQGTTVTVSS
VL: QPVLTQPASVSGSPGQSVTVSCTGTSDDVGDYNYVSWYQQHPGKAPKLLIFEVSDRPSGVSTRFSGSKSGNTASLTISGLQTEDEADYYCSSYTSRNLYVFGTGTKVTVL
On to B5, for which the binding result in test [7] is “no binding (tested: 100 nM antigen)”. In addition, the “Neutralization IC50 (RSV subtype A)” value with RSV F on RSV-A2 virus is > 25 µg/mL. In test [8], this molecule registered a Kd of 29 nM.

B6: ADI-41790 (antibody, V domains shown)
VH: QVQLVQSGAEVKKPGSSVKVSCKASGGTFSNYGISWVRQAPGQGLERLGGIIPIYGTANHAQNFQGRVTITADESTSTAYMELSSLRSEDTAVYYCARDGTFVRYYGMDVWGQGTTVTVSS
VL: EIVLTQSPATLFLSPGERATLSCRASQSVSNYLAWFQQKPGQAPRLLIYDTSIRATGIPARFSGSGSGTDFTLTISSLEPEDFAFYYCQQRSNWPPTFGGGTKLEIK
For the molecule B6, the binding result in [7] is on record as “no binding (tested: 100 nM antigen)”. The “Neutralization IC50 (RSV subtype A)” value with RSV F on RSV-A2 virus was > 25 µg/mL. This molecule showed a Kd in test [8] of 3.15 nM.

B7: ADI-21080 (antibody, V domains shown)
VH: EVQLLESGGGLVKPGGSLRLSCEVSGFRLSDYYMSWIRQAPGKGLEWVSHISGGSTYTNYADSVKGRFTISRDNGKKSMYLQMNSLRAEDTALYYCAKWGSGGPEAFDIWGRGTMVTVSS
VL: QSALIQPPSVSGAPGQRVTISCTGSSSNIGAGYDVHWYQQIPGTAPKLLIYGNNNRPSGVPDRFSGSKSGTSASLAITGLQAEDEADYYCQSYDNSLSGSVVFGGGTKLTVL
B7: in test [4], the Kd was 0.36 nM. In test [5], the “Neut IC50 (ug/ml) subtype B” value turned out to be 0.17 µg/mL. In test [6], the “Neut IC50 (ug/ml) subtype A” value was 0.1 µg/mL.

B8: ADI-41454 (antibody, V domains shown)
VH: QVQLVQSGAEVKKPGASVKVSCKASGYTFTHFGISWVRQAPGQGLEWMGWISIYNGNTNYAQKIQGRATMTTDASTSTAYMELRSLTSDDTAVYYCAREPPSTTAAATSDYWGQGTLVTVSS
VL: DIVMTQSPLSLPVTLGQPASISCRSSQSLVYIEGNTYLSWFQQRPGQSPRRLIYKVSNRDSGVPDRFSGSGSGTDFTLKISRVEAEDVGLYYCMQGTHWPRTFGQGTKLEIK
notes: IgG1; also called Ab 738
With B8, the Kd in test [1] amounted to 0.588 nM. Besides, in test [2], the “Neutralization IC50 (RSV subtype A)” value turned out to be 0.88 µg/mL. Moreover, the binding result in test [3] is “no binding (tested: 100 nM antigen)”.

B9: ADI-41787 (antibody, V domains shown)
VH: EVQLLESGGGVVQPGRSLRLSCAASGFTFSSSGMHWVRQAPGKGLEWVAIISSDGSKHYYADSVKGRFTISRDNSKNTLYLEMNSLRAEDSAVYYCAREGVWSGFFVDTGTDFRHHGMDVWGQGTTVTVSS
VL: SYELTQPPSVSVSPGQTARITCSGDALPKKFAFWYQQKSGQAPLLVIHEDNKRPSGIPERFSGSSSGTLATLTISGAQVEDEADYYCYSIDTSANLGVFGGGTKLTVL
Take B9: in test [7], the binding result was “no binding (tested: 100 nM antigen)”. Further, the “Neutralization IC50 (RSV subtype A)” value in the test with RSV F on RSV-A2 virus came to 0.38 µg/mL. Further, the Kd in test [8] was 1.56 nM.

B10: ADI-41442 (antibody, V domains shown)
VH: EVQLLESGGGLVQPGRSLRLSCAASGFTFDDYAMHWVRQAPGKGLEWVSGISWHSGSIVYADSVKGRFTISRDNAKNSLYLQMSSLRAEDTALYYCVKDHYNWNDNPHFHYGLDVWGQGTTVTVSS
VL: EIVLTQSPATLSVSPGERATLSCRASQSVISNLAWYQQKPGQAPRLFIYGASTRATGIPARFSGSGSGTEFTLTISSLQSEDFAVYFCQQYNNWPITFGQGTRLEIK
notes: IgG1; also called Ab 726
With B10, the Kd in test [1] was found to be 0.521 nM. The “Neutralization IC50 (RSV subtype A)” value in test [2] was determined as 0.04 µg/mL. The binding result in [3] is on record as “no binding (tested: 100 nM antigen)”.

B11: ADI-41452 (antibody, V domains shown)
VH: QVQLVQSGAELKKPGASVKVSCKASGHTFATYAIHWVRQAPGQSLEWLGWINTANGDTKYSQKFRATVTIHGDTSANTVYLELSRLRSEDTAVYYCASPPLVGAINLEFWGPGTLVTVSS
VL: QSVLTQPASVSGSVGQSITISCTGTSSDVGGYNSVSWYQHHPDKAPKLIIYEVSNRPSGVSHRFSGSKSGNTASLTISGLQAEDEADYYCSSYTTSDTLIFGGGTKVTVL
notes: IgG1; also called Ab 736
In the case of B11, in [1], the Kd amounted to 3.33 nM. In test [2], the “Neutralization IC50 (RSV subtype A)” value was > 25 µg/mL. Also, in [3], the binding result is “no binding (tested: 100 nM antigen)”.

B12: ADI-41450 (antibody, V domains shown)
VH: EVQLVESGGGLVKPGGSLRLSCAASGFAFSSYGINWVRQVPGKRLEWVSSISGGSSFINYADSVKGRFTISRDNAGNSVYLQMNSLRAEDTAVYFCARESYGSGSSLNWFDPWGQGTLVTVSS
VL: QSVLTQPPSVSGAPGQRVTISCTGSGSNIGAGYDVHWYQQLPGIAPRLVIFGNRNRPSGVPDRISGSKSDTSASLAITGLQAEDEGDYYCQSYDKRLSGWVFGGGTKLTVL
notes: IgG1
For B12, the Kd in test [1] is 0.613 nM. Besides, in [2], the “Neutralization IC50 (RSV subtype A)” value stood at 0.21 µg/mL. The binding result in test [3] is on record as “no binding (tested: 100 nM antigen)”.
